Data set [1] deals with the molecule itself. As to the kind of experiment: SEC; Superdex 200 HR 10/30, 50 mM Tris pH 8.3/0.15 M NaCl, 0.3 mL/min; native mass against protein standards.
Data set [2] deals with the molecule itself. The experiment in a line: SEC; Superdex 200 HR 10/30, 50 mM Tris pH 7.0/0.15 M NaCl, 0.3 mL/min; native mass against protein standards.

Substitutions are numbered along the chain they refer to. In names and notes the source's numbering stands.

B1: recombinant mature wild-type fructose-1,6-bisphosphatase 1 (cFBP1) of Arabidopsis (enzyme, Arabidopsis thaliana, UniProt P25851 60-417, looked up)
chain: AVAADAAETKTAARKKSGYELQTLTGWLLRQEMKGEIDAELTIVMSSISLACKQIASLVQRAGISNLTGVQGAVNIQGEDQKKLDVISNEVFSNCLRSSGRTGIIASEEEDVPVAVEESYSGNYVVVFDPLDGSSNIDAAVSTGSIFGIYSPNDECIVDDSDDISALGSEEQRCIVNVCQPGNNLLAAGYCMYSSSVIFVLTLGKGVFSFTLDPMYGEFVLTQENIEIPKAGRIYSFNEGNYQMWDDKLKKYIDDLKDPGPTGKPYSARYIGSLVGDFHRTLLYGGIYGYPRDAKSKNGKLRLLYECAPMSFIVEQAGGKGSDGHSRVLDIQPTEIHQRVPLYIGSTEEVEKLEKYLA
notes: Fructose-1,6-bisphosphatase 1, chloroplastic (cFBP1), Arabidopsis thaliana, gene At3g54050; ca. 40 kDa on SDS-PAGE; numbers count on: the mature protein; The number of chains depends on pH: tetramer at pH 7.0, dimer at pH 8.3, mainly dimer at pH 7.8 when fresh; Expressed from pDEST17, which to my knowledge adds an N-terminal His6; No step to cleave the tag is described; also called WT cFBP1; WT
For B1, the “stoichiometry N” value in data set [1] amounted to 2; in data set [2], 4.

B2: recombinant mature C95S variant of fructose-1,6-bisphosphatase 1 (cFBP1) of Arabidopsis (enzyme, Arabidopsis thaliana, UniProt P25851 60-417, looked up)
chain: B1 chain with C95S
notes: Fructose-1,6-bisphosphatase 1, chloroplastic (cFBP1), Arabidopsis thaliana, gene At3g54050; Cys95 replaced by Ser; numbers count on: the mature protein; The number of chains depends on pH: tetramer at pH 7.0, dimer at pH 8.3, mainly tetramer at pH 7.8; Expressed from pDEST17, which to my knowledge adds an N-terminal His6; No step to cleave the tag is described; also called C95S cFBP1; cFBP1 C95S
For the protein B2, the “stoichiometry N” value worked out at 2 in data set [1] and 4 in data set [2].

For the origin of these results see paper PMC12319266, “The Highly Conserved Cys95 Residue of Fructose‐1,6‐Bisphosphatase 1 Mediates the pH‐Driven Structure and Activity of the Enzyme and Photosynthesis” (Plant, Cell & Environment, 2025).
